# US12559545
# Target: NiVB-G (Nipah virus, strain Bangladesh)
row,Binder,EC50 [nM]
1,"HENV-122 (antibody, V domains shown) VH: EVQLLESGGGLVQPGGSLRLSCAASGFTFSTNAMSWVRQAPGKGLEWVSTVSGSGAHPNYGDSVKGRFTISRVNSKNTLFLQMSSLRAEDTAIYYCARVSTVTVGGHIPRGYYFDYWGQGTLVTVSS VL: EILLTQSPGTLSLSPGERATLSCRASQSASSSYLAWYQQKPGQAPRLLIYGASTRATGIPDRFSGSGSGTEFTLTISRLESEDFAVYYCHHYGSSRTFGQGTKVEVK",0.382
2,"HENV-99 (antibody, V domains shown) VH: QVLLVQSGAEVRKPGASVKVSCRASGYTFTDYYMHWVRQAPGQGLEWMGWINPNSGATKYAQKFQGRVTLTRDTSINTAYMELSGLRSVDTAVFYCASVPPSGFFYWGSDYWGQGTLVTVSS VL: DVVLTQSPLSLPVTLGQPASISCRSSQSLVYSDGTTYLNWFQQRPGQSPRRLIYKVSYRDSGVPDRFSGSGSGTDFTLEISRVEAEDVGIYYCMHGTHWETWTFGQGTKVEIK",1.16
3,"HENV-188 (antibody, V domains shown) VH: QVQVVESGGGVVHPGRSLRLSCAGSGFIFNNYAFHWVRQAPGGGLEWMAYISYDGRYKYYAASVRGRFTISRDDSKNTLYLQMSSLRTEDTALYYCAISDYAEPLDNWGQGTLVTVSS VL: QIVLTQSPATLSLSPGDRATLSCRASQSVSSNVAWYQQKPGQAPRLLIYNVSNRATGIPARFSGSGSGTDFTLTISSLEPEDFAVYYCHQRTNWPLTFGGGTKVEIK",1.26
4,"HENV-98 (antibody, V domains shown) VH: AVQLVESGGGLVQPGGSLRLSCEASGFTFSGYWMSWVRQAPGKGLEWVANIKGDGSEKYYVDSVKGRFTIFRDNAKTSLYLQVNSLRAEDTAVYYCARERHFLAARPGYYIYSGLDVWGPGTTVTVSS VL: DIQMTQSPSSLSASVGDRVTITCRASQSIDNYLNWYQQKPGKVPKLLIYAASNLQSGVPSKFSGGGSGTDFTLTISSLQPDDFATYYCQQSFGTPRTFGQGTRVEIK",0.58
5,"HENV-100 (antibody, V domains shown) VH: QVQLVQSGAEVKKPGASVKVSCKASGYTFTSYYINWVRQAPGQGLEWVGTINPSGGSTTYAQKFQGRVTVTRDTSTSTVYMDLSGLRSGDTAVYYCARDRKGLAATPVYSDYYYGMDVWGQGTTVTVSS VL: EIVLTQSPATLSLSPGERATLSCRASQSVSSFLAWYQQKPGQAPRLLISDASKRATGIPARFSGSGSGTDFSLTISSLEAEDFAVYYCQQSTNWRITFGQGTRLELK",0.514
6,"HENV-141 (antibody, V domains shown) VH: QVQLVQSGAEVKKPGSSVKVSCKASGGTFSSYTISWVRQAPGQGLEWMGRIIPISGITNYAQKFQGRVTITADKSTSTAYMELSSLRSEDTAVYYCAKDCYYGSGTYYGCRADYQWHHTMDVWGQGTTVTVSS VL: DIQMTQSPSSLSASVGDRVTITCRASQGIRNDLGWFQQKPGKAPKRLIYAASSLQSGVPSRFSGSGSGTEFTLTISSLQPEDFATYFCLQHNTYPLTFGQGTKVEIK",0.778
7,"HENV-137 (antibody, V domains shown) VH: EVQLVESGGGLVQPRGSLRLSCAASGFTFSGYWMSWVRQAPGKGLEWVAKIKKDGSEKTYVDSVKGRFTISRDNAKDSLYLQMNSLRAEDTAVYYCARERLLVPAAIVGLDYYYAMDVWGQGTTVTVSS VL: DIQMTQSPSSLSASVGDRVTITCRASQNMSTYLNWYQQKPGKAPKFLIYGASRLQNGVPSRFSGGGSGTDFTLTISSLQPEDFATYYCQQSYNIPITFGQGTRLEIK",0.84
8,"HENV-83 (antibody, V domains shown) VH: QVQLVESGGGVVQPGGSLRLSCAASGFTFRSYSMNWVRQAPGKGPEWMAVISYDGSNKYYTDSVKGRFTISRDNSKNTLNLQMNSLTSEDTAIYYCARFRGGGRIAARPDDYGMDVWGQGTTVTVST VL: DIQMTQSPSSLSASVGDRVTITCRASESVITYLNWYQQKPGKAPKLLIYGASTLESGVPSRFSGSGSGTVFTLTISSLQPEDIATYYCQQSYNMSPYTFGQGTKLEIK",2.79
9,"HENV-103 (antibody, V domains shown) VH: QVQLQGSGPGLVKPSQTLSLTCSVSGGSVSRSGYYWGWIRQHPGKGLECIGYIYYSGITYYNPSLSGRLTISVDTSKNQFSLELSSVTAADTAVYYCARVWLGGGVFDFWGQGSLVTVSS VL: EIVMTQSPATLSVSPGEGATLSCRASQSVSSNLAWYQQKPGQAPRLLIYDASTRATGIPARFSGSGSGTEFTLTISSLQSEDFAVYYCQQYNDWRTFGRGTKVEMR",1.34
10,"HENV-117 (antibody, V domains shown) VH: QVQLQQWGAGLLKPSETLSLTCDLSGGSFTNYYWTWIRHLPGKGLEWLGEINHSGRTNYSPSLKSRVTISVDTSKNQFSLRLSSVTAADTAVYYCARDIRKLAPKPHSYDLYYGMDVWGQGTTVTVSS VL: EIVLTQSPGTLSLSPGERATLSCRASQSVGSNYLTWYQQKPGQPPRLLIYGASNRAAGIPDRFSGSGSGTDFTLTISRLEPEDFAVYYCQQYETSSRTFGQGTKVDIR",1.2
11,"HENV-58 (antibody, V domains shown) VH: QVQLVQSGAEVKKPGSSVKVSCKASGGTFSNYVISWVRQAPGQGFEWMGRIIPMIGISNYAQKFQDRVTITADKDESTTTAYMELRGLRSEDTAMYYCASSTVTEVGAWGQGTLVTVSS VL: AIQLTQSPSSLSASIGDRVTITCRASQGISSALAWFQQKPGKPPILLIYDASSLESGVPARFSGSGSGTDFTLTISSLQPEDFATYYCQQFYNHPLTFGPGTKVDIK",1.44
12,"HENV-184 (antibody, V domains shown) VH: QVQLVQSGTEVKNPGSSVKVSCKASGGTFSGFGISWVRQAPGQGLEWMGGVLPIFGSPNYAQKFQGRVTITADESTGTAYMDLSSLRSDDTAMYYCARDQSGGFFDYWGQGTLVIVSS VL: EIVLTQSPATLSLSPGERATLSCRASQSVSSNLAWYQQKPGQAPRLLIYDASDRATGVPARFSGSGSGTDFTLTISSLEPEDFALYYCQQRYNWRVTFGQGTRLEIK",2.32
13,"HENV-142 (antibody, V domains shown) VH: QVRLQESGPRLVKPSQTLSLTCTVSGGSISSRDYYWSWIRQHPGKGLEWIGYIYYSGTTYYNPSLESRVTLSLDTSKNQFSLDLTSVTAADTAVYHCARVWLGGGVFDFWGQGTLVTVSA VL: EIVMTQSPDTLSVSPGERATLSCRASHSVTTNLAWYQQRPGQAPRLLIFDASTRATGIPARFSGSGSGTEFTLTIGSLQSEDFAVYYCQQYNDGRTFGQGTKVEIK",13
14,"HENV-150 (antibody, V domains shown) VH: EVQLLESGGGLVQPGGSLRLSCAASGFTFSSSAMSWVRQTPGKGLEWVSTISGSGANTYYAASVKGRFPISRDNSKNTLFLQMNSLRAEDTAVYYCAKVSTVTFGGHVPRGSYFDYWGQGTQVTVSS VL: SYVLTQPPSVSVAPGQTARIPCGGNNIGSKSVHWYQQKPGQAPVLVVYDENDRPSGIPERFSASKSGNTATLTISRVEAGDEADYYCQVWDSRSDHYVFGTGTKVTVL",0.332
15,"HENV-242 (antibody, V domains shown) VH: QVQLVQSGAEVKKPGSSVTVSCKTSGGTFSGYAVSWVRQAPGQGLEWMGRIVPQFNIPNYAQKFQDRVTITADESTGTSYMELSSLRSDDTAVFYCARENIQTIFGVVAMMGGGGYFDSWGQGTLVTVSS VL: DIQMTQSPSSLSASVGDRVTITCQANQDINTYLNWYLQKPGKAPQLLVFDASNLVTGVPSRFSGGGSRTDFTLTIDSLQPEDIGTYYCQQYDHLPRRTFTFGPGTKVDLK",7.67
16,"HENV-226 (antibody, V domains shown) VH: EERLVQSGGGLAQPGQSLRLSCAGFGFTFTRYEMNWVRQAPGKGLEWIAHISTRGDTISYADSVKGRATISRDDTNNSLDLQMDSLRAEDTAIYFCARDRGSLSTRPPDSYHYYYHGMDVWGQGTTVIVSS VL: EIVLTQSPATLSLSPGERATLSCRASQSIDTYLAWYQQKPGQAPRLLIYDASNRATGIPARFSGSGSGTDFSLTISSLEPDDFAVYYCQQRSNRPPRYTFGLGTRLEIK",0.361
